Where no end group is shown, it is not given here.
B1: Phage-1303 (peptide, not shown: large carriers)
peptide: YCAGHALEYMQKCM
modifications: cysteine pairing not given here; also: fused to phage pIII protein, pIII and linker sequence not given here
notes: Tested as clonal phage supernatant
B2: Phage-1302 (peptide, not shown: large carriers)
peptide: YCDGHIEMYMSKCM
modifications: cysteine pairing not given here; also: fused to phage pIII protein, pIII and linker sequence not given here
notes: as for B1
B3: Phage-1300 (peptide, not shown: large carriers)
peptide: YCSGHLPMYMAKCL
modifications: cysteine pairing not given here; also: fused to phage pIII protein, pIII and linker sequence not given here
notes: as for B1
B4: Phage-1311 (peptide, not shown: large carriers)
peptide: YCEGHVELYRQKCL
modifications: cysteine pairing not given here; also: fused to phage pIII protein, pIII and linker sequence not given here
notes: as for B1
B5: Phage-1308 (peptide, not shown: large carriers)
peptide: YCDGHVTEYMAKCL
modifications: cysteine pairing not given here; also: fused to phage pIII protein, pIII and linker sequence not given here
notes: as for B1
B6: Phage-1306 (peptide, not shown: large carriers)
peptide: YCDGHTPQFRAKCL
modifications: cysteine pairing not given here; also: fused to phage pIII protein, pIII and linker sequence not given here
notes: as for B1
B7: Phage-1310 (peptide, not shown: large carriers)
peptide: YCEGHKKEYMLKCL
modifications: cysteine pairing not given here; also: fused to phage pIII protein, pIII and linker sequence not given here
notes: as for B1

Assays:
[1] = target: Anti-CD28 Fab (SEQ ID NOs: 696, 697); assay: phage ELISA; Fab on plate pre-incubated with CD28 antigen (competitor), clonal phage supernatant, anti-M13 HRP detection
Target sequence in this assay (VH, as listed by the source, chain 1 of 2): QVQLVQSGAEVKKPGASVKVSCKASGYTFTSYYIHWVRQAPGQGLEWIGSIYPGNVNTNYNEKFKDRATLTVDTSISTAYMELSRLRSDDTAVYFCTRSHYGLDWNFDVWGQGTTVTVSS
Target sequence in this assay (VL, as listed by the source, chain 2 of 2): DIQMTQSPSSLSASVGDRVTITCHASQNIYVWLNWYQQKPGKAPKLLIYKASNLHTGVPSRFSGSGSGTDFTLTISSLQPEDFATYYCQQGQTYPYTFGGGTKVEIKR
Experimental: (§1) After panning, phage infected bacteria were plated out and colonies picked into 96 well blocks. Clonal phage was then amplified and separated from bacterial cells via centrifugation.
(§2) Clonal phage were harvested as crude supematants and screened via standard ELISAs. […] Prior to the addition of clonal phage, wells were incubated with blocking buffer and CD28 antigen or blocking buffer alone. Without washing or aspirating, clonal phage supematants were then added to the wells and incubated for a short time. Wells were then washed followed by detection of bound phage using a horse radish conjugated anti-M13 antibody. Clonal phage of interest were then sent for sequence analysis.

[2] = target: Anti-CD28 Fab (SEQ ID NOs: 696, 697); assay: phage ELISA; biotinylated anti-CD28 Fab on neutravidin plate, clonal phage supernatant, anti-M13 HRP detection;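 also: crude supernatants of single phage clones picked after panning were screened for binding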
Target sequence in this assay (VH, as listed by the source, chain 1 of 2): as the sequence (VH, as listed by the source, chain 1 of 2) above
Target sequence in this assay (VL, as listed by the source, chain 2 of 2): as the sequence (VL, as listed by the source, chain 2 of 2) above

[3] = target: T1, Anti-CD28 Fab (SEQ ID NOs: 696, 697); assay: as above
T1 construct: In the phage ELISA the Fab was biotinylated and captured on neutravidin coated plates
T1 sequence (VH, as listed by the source, chain 1 of 2): as the sequence (VH, as listed by the source, chain 1 of 2) above
T1 sequence (VL, as listed by the source, chain 2 of 2): as the sequence (VL, as listed by the source, chain 2 of 2) above

[4] = target: T1, Anti-CD28 Fab (SEQ ID NOs: 696, 697); assay: phage ELISA; Fab-coated wells pre-incubated with CD28 antigen as competitor, clonal phage supernatant, anti-M13 HRP detection
Experimental: as §1, §2

[5] = target: Anti-CD28 Fab (SEQ ID NOs: 696, 697); assay: phage ELISA; biotinylated anti-CD28 Fab on neutravidin plate, clonal phage supernatant, anti-M13 HRP detection; remark: listed apart in the source;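 also: crude supernatants of single phage clones picked after panning were screened for binding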
Target sequence in this assay (VH, as listed by the source, chain 1 of 2): as the sequence (VH, as listed by the source, chain 1 of 2) above
Target sequence in this assay (VL, as listed by the source, chain 2 of 2): as the sequence (VL, as listed by the source, chain 2 of 2) above

[6] = target: Anti-CD28 Fab (SEQ ID NOs: 696, 697); assay: phage ELISA as above; wells pre-incubated with CD28 antigen as competitor
Target sequence in this assay (VH, as listed by the source, chain 1 of 2): as the sequence (VH, as listed by the source, chain 1 of 2) above
Target sequence in this assay (VL, as listed by the source, chain 2 of 2): as the sequence (VL, as listed by the source, chain 2 of 2) above
Experimental: as §1, §2

Binder | Phage binding ELISA, Anti-CD28 Fab signal in the presence of CD28 [1] | Phage binding ELISA, Anti-CD28 Fab signal [2] | Anti-CD28 Fab signal (phage binding ELISA) [5] | Anti-CD28 Fab signal in the presence of CD28 (phage binding ELISA) [6] | other results
YCDGHDPQYIRKCI (also called Peptide-87 library clone) [Phage-1264] | 0.06 | 0.83 |  |  | 
YCQGHAPWYMVKCL [Phage-1287] |  |  |  |  | Phage binding ELISA, Anti-CD28 Fab signal [3]: 0.69; Phage binding ELISA, Anti-CD28 Fab signal in the presence of CD28 [4]: 0.08
B1 |  |  | 0.61 | 0.08 | 
YCAGHAAIYMAKCL (also called Peptide-87 library clone) [Phage-1261] | 0.07 | 0.85 |  |  | 
YCDGHSPQYLWKCL (also called Peptide-87 library clone) [Phage-1269] | 0.05 | 0.8 |  |  | 
YCAGHSLQYLGKCY (also called Peptide-87 library clone) [Phage-1260] | 0.06 | 0.86 |  |  | 
YCEGHAREYMDKCL (also called Peptide-87 library clone) [Phage-1267] | 0.07 | 0.8 |  |  | 
YCEGHSRQYMEKCM [Phage-1299] |  |  |  |  | Phage binding ELISA, Anti-CD28 Fab signal [3]: 0.63; Phage binding ELISA, Anti-CD28 Fab signal in the presence of CD28 [4]: 0.33
YCDGHSGEYMSKCL (also called Peptide-87 library clone) [Phage-1266] | 0.06 | 0.82 |  |  | 
YCAGHSAEYIQKCL (also called Peptide-87 library clone) [Phage-1270] | 0.08 | 0.8 |  |  | 
B2 |  |  | 0.61 | 0.06 | 
YCEGHMSEYMRKCL [Phage-1288] |  |  |  |  | Phage binding ELISA, Anti-CD28 Fab signal [3]: 0.69; Phage binding ELISA, Anti-CD28 Fab signal in the presence of CD28 [4]: 0.1
B3 |  |  | 0.62 | 0.13 | 
B4 |  |  | 0.56 | 0.06 | 
B5 |  |  | 0.58 | 0.07 | 
YCDGHEPQYMTKCL [Phage-1290] |  |  |  |  | Phage binding ELISA, Anti-CD28 Fab signal [3]: 0.68; Phage binding ELISA, Anti-CD28 Fab signal in the presence of CD28 [4]: 0.1
B6 |  |  | 0.59 | 0.07 | 
YCQGHSVQYMAKCL (also called Peptide-87 library clone) [Phage-1272] | 0.06 | 0.77 |  |  | 
B7 |  |  | 0.56 | 0.08 | 

From patent publication US20260242478A1 (published 2026)
